Where a chain is given by its changes, count along the chain named.
B1: Ab3 (antibody, human IgG1, kappa, V domains shown)
VH: EVQLVQSGAEVKKPGASVKVSCKASGYTFTGYYMHWVRQAPGQGLEWMGWINPKSGATNFPQKFQGRVTMTRDTSITTAYMDLSRLRSDDTAVYYCARESGDDAFDIWGQGTMVTVSS
VL: DIVMTQSPSSLSASVGDRVTITCRASQKISSYLNWYQQKPGKAPKLLIYAASSLQSGVPSRFSGSGSGTDFTLTISSLQPEDFATYYCQQSYSTSFGGGTKVEIKR
notes: full-length human IgG
B2: CTIR2-10 (antibody, human IgG1, kappa, V domains shown)
VH: B1 VH with T30R, Y33A, K54R, A57V, N59E
VL: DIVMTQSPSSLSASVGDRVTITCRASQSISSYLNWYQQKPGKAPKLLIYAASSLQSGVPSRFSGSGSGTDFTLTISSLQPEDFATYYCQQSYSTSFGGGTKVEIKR
notes: CDR-shuffled IgG
B3: Ab46 (antibody, human IgG1, kappa, V domains shown)
VH: B1 VH with W50A, N52D, S55H, A57F, N59I
VL: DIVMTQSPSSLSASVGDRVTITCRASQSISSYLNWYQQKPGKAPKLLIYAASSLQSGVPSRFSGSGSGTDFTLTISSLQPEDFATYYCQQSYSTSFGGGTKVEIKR
notes: full-length human IgG
B4: Ab32 (antibody, human IgG1, kappa, V domains shown)
VH: B1 VH with W50A, N52D, S55L, A57I, N59I
VL: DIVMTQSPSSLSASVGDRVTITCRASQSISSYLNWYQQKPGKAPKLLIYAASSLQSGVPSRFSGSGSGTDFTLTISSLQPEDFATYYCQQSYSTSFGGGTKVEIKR
notes: full-length human IgG
B5: Ab83 (antibody, human IgG1, kappa, V domains shown)
VH: B1 VH with K54R, S55N, A57I, N59S
VL: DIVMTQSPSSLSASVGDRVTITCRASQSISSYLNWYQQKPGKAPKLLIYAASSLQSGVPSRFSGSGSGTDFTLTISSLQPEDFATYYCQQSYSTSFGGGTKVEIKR
notes: full-length human IgG
B6: Abcs50 (antibody, human IgG1, kappa, V domains shown)
VH: B1 VH with S55N, A57D, N59E
VL: B1 VL with K28S, S56Y
notes: chain-shuffled IgG
B7: Abcs12 (antibody, human IgG1, kappa, V domains shown)
VH: B1 VH with K54R, S55N, A57I, N59S
VL: B1 VL with K28S, Y92L, S93E, T94L, S95G
notes: chain-shuffled IgG; also called Abes12
B8: Ab58 (antibody, human IgG1, kappa, V domains shown)
VH: B1 VH with S55D, A57D, N59E
VL: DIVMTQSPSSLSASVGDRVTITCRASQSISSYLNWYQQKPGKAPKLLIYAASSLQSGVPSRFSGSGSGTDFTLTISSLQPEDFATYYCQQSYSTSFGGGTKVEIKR
notes: full-length human IgG
B9: Ab22 (antibody, human IgG1, kappa, V domains shown)
VH: B1 VH with K54R
VL: B1 VL with K28S, S56Y
notes: full-length human IgG
B10: Ab29 (antibody, human IgG1, kappa, V domains shown)
VH: B1 VH with W50A, N52D, A57T, N59M
VL: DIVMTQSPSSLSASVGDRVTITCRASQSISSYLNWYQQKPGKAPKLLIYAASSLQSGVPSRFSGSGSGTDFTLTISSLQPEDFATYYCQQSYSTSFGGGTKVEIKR
notes: full-length human IgG
B11: CTIR2-6 (antibody, human IgG1, kappa, V domains shown)
VH: B1 VH
VL: B1 VL with Y92V, S93G, T94L, S95F
notes: CDR-shuffled IgG
B12: CTIR2-9 (antibody, human IgG1, kappa, V domains shown)
VH: B1 VH
VL: B1 VL with S56Y, Y92V, S93G, T94L, S95F
notes: CDR-shuffled IgG
B13: Ab40 (antibody, human IgG1, kappa, V domains shown)
VH: B1 VH with K54N
VL: B1 VL with K28S, Y92L, S93E, T94L, S95G
notes: full-length human IgG
B14: CTIR2-13 (antibody, human IgG1, kappa, V domains shown)
VH: B1 VH with T30R, Y33A, N52D, K54R, S55T, A57L, N59K
VL: B1 VL with S56Y
notes: CDR-shuffled IgG
B15: Abcs5 (antibody, human IgG1, kappa, V domains shown)
VH: B1 VH with S55N, A57D, N59E
VL: B1 VL with K28S, Y92L, S93E, T94L, S95G
notes: chain-shuffled IgG

What was measured:
[1] = molecular target: T1, Human ROBO2 overexpressed on HEK293 cells (human, UniProt Q9HCK4 22-1378); test: flow cytometry, Geo MFI ROBO2/ROBO1 HEK293 cells, 0.1 µg/ml
T1 construct: also called ROBO2 cells; native ROBO2
T1 sequence: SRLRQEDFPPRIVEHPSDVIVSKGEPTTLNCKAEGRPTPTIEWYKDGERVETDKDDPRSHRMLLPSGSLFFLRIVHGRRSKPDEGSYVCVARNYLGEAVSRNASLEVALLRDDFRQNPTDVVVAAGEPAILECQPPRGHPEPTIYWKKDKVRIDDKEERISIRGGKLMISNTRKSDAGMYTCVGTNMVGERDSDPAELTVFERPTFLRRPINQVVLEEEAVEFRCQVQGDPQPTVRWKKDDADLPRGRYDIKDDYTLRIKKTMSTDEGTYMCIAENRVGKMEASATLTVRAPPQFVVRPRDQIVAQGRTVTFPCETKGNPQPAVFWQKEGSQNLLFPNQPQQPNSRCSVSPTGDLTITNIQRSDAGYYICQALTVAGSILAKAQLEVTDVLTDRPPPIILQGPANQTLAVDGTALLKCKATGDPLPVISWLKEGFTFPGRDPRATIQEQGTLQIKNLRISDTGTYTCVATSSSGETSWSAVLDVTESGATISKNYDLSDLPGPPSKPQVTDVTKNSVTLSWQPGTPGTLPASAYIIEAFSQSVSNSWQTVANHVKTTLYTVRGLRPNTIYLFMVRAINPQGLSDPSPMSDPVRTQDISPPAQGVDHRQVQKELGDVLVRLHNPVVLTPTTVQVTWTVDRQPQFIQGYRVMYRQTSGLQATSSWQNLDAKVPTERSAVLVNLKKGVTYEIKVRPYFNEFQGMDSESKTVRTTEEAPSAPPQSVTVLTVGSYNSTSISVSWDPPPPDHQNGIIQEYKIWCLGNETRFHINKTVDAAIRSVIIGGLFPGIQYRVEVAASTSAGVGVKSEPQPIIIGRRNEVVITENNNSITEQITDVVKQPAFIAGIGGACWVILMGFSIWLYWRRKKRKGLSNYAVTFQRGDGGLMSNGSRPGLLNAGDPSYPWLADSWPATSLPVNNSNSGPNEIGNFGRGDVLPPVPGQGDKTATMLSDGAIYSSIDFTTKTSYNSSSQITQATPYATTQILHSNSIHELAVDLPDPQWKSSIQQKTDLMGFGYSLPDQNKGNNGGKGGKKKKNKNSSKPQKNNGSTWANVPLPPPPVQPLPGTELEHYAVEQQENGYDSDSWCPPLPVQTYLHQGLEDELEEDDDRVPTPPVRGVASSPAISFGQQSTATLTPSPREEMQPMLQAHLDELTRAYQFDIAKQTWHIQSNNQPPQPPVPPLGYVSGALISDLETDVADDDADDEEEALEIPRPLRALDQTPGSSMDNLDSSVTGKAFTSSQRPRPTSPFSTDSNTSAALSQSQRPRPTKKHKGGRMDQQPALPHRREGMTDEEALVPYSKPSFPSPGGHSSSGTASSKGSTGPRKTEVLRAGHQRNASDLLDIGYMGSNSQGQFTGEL
Experimental: (§1) Binding of the antibodies was detected using a secondary fluorochrome conjugated anti-human IgG F(ab′)₂ antibody and samples were analyzed on a Fortessa cytometer (BD Biosciences). The fold ROBO2 selectivity was calculated as the geometric mean fluorescence intensity (Geo MFI) with ROBO2 cells/Geo MFI with ROBO1 cells. A fold change higher than 3 was considered to be ROBO2 specific (Table 2, Fold Selectivity). Some affinity matured clones had increased ROBO1 reactivity, for example Abcs 55, CTI-R2-10 and CTIR2-13.
(§2) HTRF assays were run with 5 nM d2-labeled SLIT2-N and antibodies were added at 1 nM. […] Antibodies derived from chain (Abcs series) or CDR shuffling (CTIR-2 series) were evaluated in 11-point, 5-fold dilution series with a top concentration of 1500 nM, N.T. = not tested; ^cFold selectivity was calculated as Geometric Mean Fluorescent Intensity (Geo MFI) of ROBO2/Geo MFI of ROBO1 binding. […] Outcomes: results are listed in order of assays listed in the table (left to right), I.A. = Improved Affinity

[2] = molecular target: T2, Terbium (Tb) labeled-SNAP tagged ROBO2 expressed on HEK293 cells (Homo sapiens (Human), UniProt Q9HCK4 22-1378, terbium label on the SNAP tag); test: HTRF competition, competitor d2-SLIT2-N, ROBO2 HEK293 cells
T2 construct: also called Tb-labeled ROBO2 cells; ROBO2 expressing cells; not shown: SNAP tag
T2 sequence: T1 sequence
Experimental: (§3) Antibodies generated as a result of the affinity maturation campaign were screened by numerous assays for neutralization of SLIT2-N binding, selective binding to ROBO2 over ROBO1, and inhibition of SLIT2-N functional activity (see Table 2). A ROBO2-SLIT2-N homogenous time resolved fluorescence (HTRF) assay was used to identify antibodies that were capable of blocking SLIT2-N binding to ROBO2. In this assay, terbium (Tb) labeled-SNAP tagged ROBO2 expressing HEK293 cells were incubated with 5 nM d2-labeled SLIT-2N in the presence of 1 nM anti-ROBO2 antibodies for 1 hour. After incubation, fluorescence at 665 nm and 620 nm was measured on an Envision multilabel plate reader. […] Maximal signal was defined as the HTRF ratio of Tb-labeled ROBO2 cells with d2-labeled SLIT2-N in the absence of antibody, the minimum signal was defined as the HTRF ratio of Tb-labeled ROBO2 expressing HEK293 cells only. One nanomolar (nM) parental antibody, 93H2, was unable to block the HTRF assay, therefore this concentration was selected to identify clones with a higher affinity than 93H2 (Table 2, HTRF Ratio column). […] Antibodies derived from chain (Abcs series) or CDR shuffling (CTIR-2 series) were evaluated in 11-point, 5-fold dilution series with a top concentration of 1500 nM (Table 2 HTRF IC₅₀).

[3] = molecular target: T2, Terbium (Tb) labeled-SNAP tagged ROBO2 …; test: HTRF, 5 nM d2-SLIT2-N on Tb-SNAP-ROBO2 HEK293 cells, 1 nM antibody
Experimental: as §3, with “In” for “Antibodies generated as a result of the affinity maturation campaign were screened by numerous assays for neutralization of SLIT2-N binding, selective binding to ROBO2 over ROBO1, and inhibition of SLIT2-N functional activity (see Table 2). A ROBO2-SLIT2-N homogenous time resolved fluorescence (HTRF) assay was used to identify antibodies that were capable of blocking SLIT2-N binding to ROBO2. In”
HTRF assays were run with 5 nM d2-labeled SLIT2-N and antibodies were added at 1 nM. […] Antibodies derived from chain (Abcs series) or CDR shuffling (CTIR-2 series) were evaluated in 11-point, 5-fold dilution series with a top concentration of 1500 nM, N.T. = not tested; ^cFold selectivity was calculated as Geometric Mean Fluorescent Intensity (Geo MFI) of ROBO2/Geo MFI of ROBO1 binding.

[4] = molecular target: T1, Human ROBO2 overexpressed on HEK293 …; test: flow cytometry, Geo MFI ROBO2/ROBO1 HEK293 cells, 2.5 µg/ml
Experimental: as §1, §2

[5] = molecular target: T3, Human ROBO1 RSK mutant overexpressed on HEK293 cells (human, UniProt Q9Y6N7 26-1651); test: flow cytometry, Geo MFI ROBO1-RSK/ROBO2-KSR HEK293 cells, 2.5 µg/ml
T3 construct: K137R and R139K already in the entry; also called ROBO1-RSK cells
T3 sequence (Q9Y6N7 other isoform, or with tags, fused parts or gaps mutant limits assumed): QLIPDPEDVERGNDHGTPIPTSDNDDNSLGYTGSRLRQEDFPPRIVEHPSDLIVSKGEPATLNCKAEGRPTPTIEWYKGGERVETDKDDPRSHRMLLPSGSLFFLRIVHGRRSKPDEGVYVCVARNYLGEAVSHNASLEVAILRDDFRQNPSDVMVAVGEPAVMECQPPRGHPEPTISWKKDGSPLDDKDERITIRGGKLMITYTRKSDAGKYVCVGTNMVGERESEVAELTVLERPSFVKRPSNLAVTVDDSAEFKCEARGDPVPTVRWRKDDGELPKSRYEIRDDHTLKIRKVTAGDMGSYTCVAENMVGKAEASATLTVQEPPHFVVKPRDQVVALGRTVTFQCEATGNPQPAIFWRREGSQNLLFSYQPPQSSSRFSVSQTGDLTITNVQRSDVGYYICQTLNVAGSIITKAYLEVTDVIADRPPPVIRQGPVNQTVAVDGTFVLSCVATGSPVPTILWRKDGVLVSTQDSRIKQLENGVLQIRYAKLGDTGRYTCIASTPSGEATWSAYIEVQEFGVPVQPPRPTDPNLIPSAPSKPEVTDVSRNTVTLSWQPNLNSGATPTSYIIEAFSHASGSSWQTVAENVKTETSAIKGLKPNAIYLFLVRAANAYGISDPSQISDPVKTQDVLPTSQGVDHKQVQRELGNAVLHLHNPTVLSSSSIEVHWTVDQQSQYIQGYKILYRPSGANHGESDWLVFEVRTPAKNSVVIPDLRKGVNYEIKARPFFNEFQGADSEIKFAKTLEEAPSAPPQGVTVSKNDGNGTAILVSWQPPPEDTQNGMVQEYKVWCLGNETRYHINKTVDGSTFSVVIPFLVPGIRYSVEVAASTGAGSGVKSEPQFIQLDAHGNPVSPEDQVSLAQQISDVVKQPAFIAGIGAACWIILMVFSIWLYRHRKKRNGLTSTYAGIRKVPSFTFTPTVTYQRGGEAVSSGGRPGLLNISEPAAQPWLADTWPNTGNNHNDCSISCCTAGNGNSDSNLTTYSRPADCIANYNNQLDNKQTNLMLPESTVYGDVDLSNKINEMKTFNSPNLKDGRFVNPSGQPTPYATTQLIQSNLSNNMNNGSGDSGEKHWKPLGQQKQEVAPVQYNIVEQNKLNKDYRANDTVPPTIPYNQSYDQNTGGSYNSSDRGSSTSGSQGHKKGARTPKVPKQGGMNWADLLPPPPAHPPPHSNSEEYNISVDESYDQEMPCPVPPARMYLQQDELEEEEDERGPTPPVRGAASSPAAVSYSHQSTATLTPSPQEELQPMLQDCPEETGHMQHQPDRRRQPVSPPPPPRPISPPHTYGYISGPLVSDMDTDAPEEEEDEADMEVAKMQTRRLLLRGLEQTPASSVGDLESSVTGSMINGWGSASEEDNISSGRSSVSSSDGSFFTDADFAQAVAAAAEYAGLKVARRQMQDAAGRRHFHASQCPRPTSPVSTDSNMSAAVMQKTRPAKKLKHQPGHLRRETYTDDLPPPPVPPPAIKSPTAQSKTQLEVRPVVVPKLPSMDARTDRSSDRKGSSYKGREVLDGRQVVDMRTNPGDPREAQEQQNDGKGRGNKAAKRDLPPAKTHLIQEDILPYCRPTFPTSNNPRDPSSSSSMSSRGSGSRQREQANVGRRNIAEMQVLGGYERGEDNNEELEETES

Binder | Fold Selectivity for ROBO2/ROBO1 [1] [fold] | IC50 [2] [nM] | HTRF Ratio [3] | Fold Selectivity for ROBO2/ROBO1 [4] [fold] | Fold Selectivity for RSK/KSR [5] [fold]
B1 | 92 | 0.133 | 6610 | – | –
B2 | – | 0.04 | 3920 | 2.3 | 1.4
B3 | > 100 | 0.109 | 5710 | – | –
B4 | 90.3 | 0.234 | 6000 | – | –
B5 | 40.6 | 0.437 | 4770 | – | –
B6 | – | 0.051 | 2710 | 3.9 | 1.3
B7 | – | 0.032 | 2910 | 15.7 | > 100
B8 | 21.8 | 0.282 | 5570 | – | –
B9 | 67.4 | 0.229 | 5730 | – | –
B10 | > 100 | 0.097 | 7730 | – | –
B11 | – | 0.067 | 4160 | 35 | > 100
B12 | – | 0.064 | 3540 | 14.8 | > 100
B13 | > 100 | 0.728 | 7430 | – | –
B14 | – | 0.055 | 3530 | 2.3 | 2.5
B15 | – | 0.036 | 3540 | 5.1 | 6.7

Source: patent publication US20200157212A1 (Pfizer, published 2020)
